# B1: CNOT3-T292A/S294A (endogenous, Cnot3-DM mouse ESCs) (natural protein, mouse (endogenous in E14 ESCs), UniProt Q8K0V4 1-751, looked up)
# chain: MADKRKLQGEIDRCLKKVSEGVEQFEDIWQKLHNAANANQKEKYEADLKKEIKKLQRLRDQIKTWVASNEIKDKRQLIENRKLIETQMERFKVVERETKTKAYSKEGLGLAQKVDPAQKEKEEVGQWLTNTIDTLNMQVDQFESEVESLSVQTRKKKGDKDKQDRIEGLKRHIEKHRYHVRMLETILRMLDNDSILVDAIRKIKDDVEYYVDSSQDPDFEENEFLYDDLDLEDIPQALVATSPPSHSHMEDEIFNQSSSTPTSTTSSSPIPPSPANCTTENSEDDKKRGRSADAEVSQSPAKNGSKPVHSNQHPQSPAVPPTYPSGPPPTTSALSSTPGNNGASTPAAPTSALGPKASPAPSHNSGTPAPYAQAVAPPNASGPSNAQPRPPSAQPSGGSGGGSGGSSSNSNSGTGGGAGKQNGATSYSSVVADSPAEVTLSSSGGSSASSQALGPTSGPHNPAPSTSKESSTAAPSGAGNVASGSGNNSGGPSLLVPLPVNPPSSPTPSFSEAKAAGTLLNGPPQFSTTPEIKAPEPLSSLKSMAERAAISSGIEDPVPTLHLTDRDIILSSTSAPPTSSQPPLQLSEVNIPLSLGVCPLGPVSLTKEQLYQQAMEEAAWHHMPHPSDSERIRQYLPRNPCPTPPYHHQMPPPHSDTVEFYQRLSTETLFFIFYYLEGTKAQYLAAKALKKQSWRFHTKYMMWFQRHEEPKTITDEFEQGTYIYFDYEKWGQRKKEGFTFEYRYLEDRDLQ
# Columns and labels:
# [1] = molecular target: Aurora B (endogenous, mouse cells) (mouse (endogenous in E14 ESCs), UniProt O70126 1-345); assay: proximity ligation
# Sequence of Aurora B (endogenous, mouse cells) (O70126 whole entry): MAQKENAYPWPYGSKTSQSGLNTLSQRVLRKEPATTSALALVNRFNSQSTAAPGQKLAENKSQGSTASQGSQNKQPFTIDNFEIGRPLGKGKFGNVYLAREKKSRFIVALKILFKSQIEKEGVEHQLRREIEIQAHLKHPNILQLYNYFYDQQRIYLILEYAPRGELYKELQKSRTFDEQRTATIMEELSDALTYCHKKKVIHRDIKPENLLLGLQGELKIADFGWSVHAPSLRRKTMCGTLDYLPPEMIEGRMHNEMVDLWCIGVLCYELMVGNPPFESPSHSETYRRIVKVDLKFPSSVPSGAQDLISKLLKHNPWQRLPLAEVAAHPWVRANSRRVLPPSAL
# [2] = molecular target: ERK (endogenous, mouse ME cells) (mouse (endogenous in ESC-derived ME cells)) (UniProt Q63844); assay: proximity ligation
# Sequence of ERK (endogenous, mouse ME cells) (mouse (endogenous in ESC-derived ME cells)) (Q63844 whole entry): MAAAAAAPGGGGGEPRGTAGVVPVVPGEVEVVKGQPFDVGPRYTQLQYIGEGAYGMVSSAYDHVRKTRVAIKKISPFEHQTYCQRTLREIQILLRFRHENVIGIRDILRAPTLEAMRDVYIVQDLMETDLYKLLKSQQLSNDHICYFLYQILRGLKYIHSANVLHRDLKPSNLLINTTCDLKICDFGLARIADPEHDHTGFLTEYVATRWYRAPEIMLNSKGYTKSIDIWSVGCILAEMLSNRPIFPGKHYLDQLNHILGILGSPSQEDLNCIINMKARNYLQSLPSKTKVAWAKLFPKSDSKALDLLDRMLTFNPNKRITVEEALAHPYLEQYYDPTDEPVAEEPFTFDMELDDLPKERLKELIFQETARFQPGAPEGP
binder,measurement,setting,value
B1,fold increase of PLA interaction against wild-type cells,[1],~3 fold
same,fold reduction of PLA interaction foci in the cytoplasm against wild-type cells,[2],3 fold
same,fold reduction of PLA interaction foci in the nucleus against wild-type cells,[2],5 fold
